Test results reported in publication doi:10.1101/2022.06.02.494603 (bioRxiv, 2022).

B1: TBK1 I710N, untagged (natural protein, human, UniProt Q9UHD2 1-729, looked up)
chain: MQSTSNHLWLLSDILGQGATANVFRGRHKKTGDLFAIKVFNNISFLRPVDVQMREFEVLKKLNHKNIVKLFAIEEETTTRHKVLIMEFCPCGSLYTVLEEPSNAYGLPESEFLIVLRDVVGGMNHLRENGIVHRDIKPGNIMRVIGEDGQSVYKLTDFGAARELEDDEQFVSLYGTEEYLHPDMYERAVLRKDHQKKYGATVDLWSIGVTFYHAATGSLPFRPFEGPRRNKEVMYKIITGKPSGAISGVQKAENGPIDWSGDMPVSCSLSRGLQVLLTPVLANILEADQEKCWGFDQFFAETSDILHRMVIHVFSLQQMTAHKIYIHSYNTATIFHELVYKQTKIISSNQELIYEGRRLVLEPGRLAQHFPKTTEENPIFVVSREPLNTIGLIYEKISLPKVHPRYDLDGDASMAKAITGVVCYACRIASTLLLYQELMRKGIRWLIELIKDDYNETVHKKTEVVITLDFCIRNIEKTVKVYEKLMKINLEAAELGEISDIHTKLLRLSSSQGTIETSLQDIDSRLSPGGSLADAWAHQEGTHPKDRNVEKLQVLLNCMTEIYYQFKKDKAERRLAYNEEQIHKFDKQKLYYHATKAMTHFTDECVKKYEAFLNKSEEWIRKMLHLRKQLLSLTNQCFDIEEEVSKYQEYTNELQETLPQKMFTASSGIKHTMTPIYPSSNTLVEMTLGMKKLKEEMEGVVKELAENNHNLERFGSLTMDGGLRNVDCL
B2: TBK1 Q565P, untagged (natural protein, human, UniProt Q9UHD2 1-729, looked up)
chain: MQSTSNHLWLLSDILGQGATANVFRGRHKKTGDLFAIKVFNNISFLRPVDVQMREFEVLKKLNHKNIVKLFAIEEETTTRHKVLIMEFCPCGSLYTVLEEPSNAYGLPESEFLIVLRDVVGGMNHLRENGIVHRDIKPGNIMRVIGEDGQSVYKLTDFGAARELEDDEQFVSLYGTEEYLHPDMYERAVLRKDHQKKYGATVDLWSIGVTFYHAATGSLPFRPFEGPRRNKEVMYKIITGKPSGAISGVQKAENGPIDWSGDMPVSCSLSRGLQVLLTPVLANILEADQEKCWGFDQFFAETSDILHRMVIHVFSLQQMTAHKIYIHSYNTATIFHELVYKQTKIISSNQELIYEGRRLVLEPGRLAQHFPKTTEENPIFVVSREPLNTIGLIYEKISLPKVHPRYDLDGDASMAKAITGVVCYACRIASTLLLYQELMRKGIRWLIELIKDDYNETVHKKTEVVITLDFCIRNIEKTVKVYEKLMKINLEAAELGEISDIHTKLLRLSSSQGTIETSLQDIDSRLSPGGSLADAWAHQEGTHPKDRNVEKLQVLLNCMTEIYYPFKKDKAERRLAYNEEQIHKFDKQKLYYHATKAMTHFTDECVKKYEAFLNKSEEWIRKMLHLRKQLLSLTNQCFDIEEEVSKYQEYTNELQETLPQKMFTASSGIKHTMTPIYPSSNTLVEMTLGMKKLKEEMEGVVKELAENNHILERFGSLTMDGGLRNVDCL
B3: TBK1 L94S, untagged (natural protein, human, UniProt Q9UHD2 1-729, looked up)
chain: MQSTSNHLWLLSDILGQGATANVFRGRHKKTGDLFAIKVFNNISFLRPVDVQMREFEVLKKLNHKNIVKLFAIEEETTTRHKVLIMEFCPCGSSYTVLEEPSNAYGLPESEFLIVLRDVVGGMNHLRENGIVHRDIKPGNIMRVIGEDGQSVYKLTDFGAARELEDDEQFVSLYGTEEYLHPDMYERAVLRKDHQKKYGATVDLWSIGVTFYHAATGSLPFRPFEGPRRNKEVMYKIITGKPSGAISGVQKAENGPIDWSGDMPVSCSLSRGLQVLLTPVLANILEADQEKCWGFDQFFAETSDILHRMVIHVFSLQQMTAHKIYIHSYNTATIFHELVYKQTKIISSNQELIYEGRRLVLEPGRLAQHFPKTTEENPIFVVSREPLNTIGLIYEKISLPKVHPRYDLDGDASMAKAITGVVCYACRIASTLLLYQELMRKGIRWLIELIKDDYNETVHKKTEVVITLDFCIRNIEKTVKVYEKLMKINLEAAELGEISDIHTKLLRLSSSQGTIETSLQDIDSRLSPGGSLADAWAHQEGTHPKDRNVEKLQVLLNCMTEIYYQFKKDKAERRLAYNEEQIHKFDKQKLYYHATKAMTHFTDECVKKYEAFLNKSEEWIRKMLHLRKQLLSLTNQCFDIEEEVSKYQEYTNELQETLPQKMFTASSGIKHTMTPIYPSSNTLVEMTLGMKKLKEEMEGVVKELAENNHILERFGSLTMDGGLRNVDCL
B4: TBK1 R440Q, untagged (natural protein, human, UniProt Q9UHD2 1-729, looked up)
chain: MQSTSNHLWLLSDILGQGATANVFRGRHKKTGDLFAIKVFNNISFLRPVDVQMREFEVLKKLNHKNIVKLFAIEEETTTRHKVLIMEFCPCGSLYTVLEEPSNAYGLPESEFLIVLRDVVGGMNHLRENGIVHRDIKPGNIMRVIGEDGQSVYKLTDFGAARELEDDEQFVSLYGTEEYLHPDMYERAVLRKDHQKKYGATVDLWSIGVTFYHAATGSLPFRPFEGPRRNKEVMYKIITGKPSGAISGVQKAENGPIDWSGDMPVSCSLSRGLQVLLTPVLANILEADQEKCWGFDQFFAETSDILHRMVIHVFSLQQMTAHKIYIHSYNTATIFHELVYKQTKIISSNQELIYEGRRLVLEPGRLAQHFPKTTEENPIFVVSREPLNTIGLIYEKISLPKVHPRYDLDGDASMAKAITGVVCYACRIASTLLLYQELMQKGIRWLIELIKDDYNETVHKKTEVVITLDFCIRNIEKTVKVYEKLMKINLEAAELGEISDIHTKLLRLSSSQGTIETSLQDIDSRLSPGGSLADAWAHQEGTHPKDRNVEKLQVLLNCMTEIYYQFKKDKAERRLAYNEEQIHKFDKQKLYYHATKAMTHFTDECVKKYEAFLNKSEEWIRKMLHLRKQLLSLTNQCFDIEEEVSKYQEYTNELQETLPQKMFTASSGIKHTMTPIYPSSNTLVEMTLGMKKLKEEMEGVVKELAENNHILERFGSLTMDGGLRNVDCL
B5: TBK1 R47H, untagged (natural protein, human, UniProt Q9UHD2 1-729, looked up)
chain: MQSTSNHLWLLSDILGQGATANVFRGRHKKTGDLFAIKVFNNISFLHPVDVQMREFEVLKKLNHKNIVKLFAIEEETTTRHKVLIMEFCPCGSLYTVLEEPSNAYGLPESEFLIVLRDVVGGMNHLRENGIVHRDIKPGNIMRVIGEDGQSVYKLTDFGAARELEDDEQFVSLYGTEEYLHPDMYERAVLRKDHQKKYGATVDLWSIGVTFYHAATGSLPFRPFEGPRRNKEVMYKIITGKPSGAISGVQKAENGPIDWSGDMPVSCSLSRGLQVLLTPVLANILEADQEKCWGFDQFFAETSDILHRMVIHVFSLQQMTAHKIYIHSYNTATIFHELVYKQTKIISSNQELIYEGRRLVLEPGRLAQHFPKTTEENPIFVVSREPLNTIGLIYEKISLPKVHPRYDLDGDASMAKAITGVVCYACRIASTLLLYQELMRKGIRWLIELIKDDYNETVHKKTEVVITLDFCIRNIEKTVKVYEKLMKINLEAAELGEISDIHTKLLRLSSSQGTIETSLQDIDSRLSPGGSLADAWAHQEGTHPKDRNVEKLQVLLNCMTEIYYQFKKDKAERRLAYNEEQIHKFDKQKLYYHATKAMTHFTDECVKKYEAFLNKSEEWIRKMLHLRKQLLSLTNQCFDIEEEVSKYQEYTNELQETLPQKMFTASSGIKHTMTPIYPSSNTLVEMTLGMKKLKEEMEGVVKELAENNHILERFGSLTMDGGLRNVDCL
B6: TBK1 Q581H, untagged (natural protein, human, UniProt Q9UHD2 1-729, looked up)
chain: MQSTSNHLWLLSDILGQGATANVFRGRHKKTGDLFAIKVFNNISFLRPVDVQMREFEVLKKLNHKNIVKLFAIEEETTTRHKVLIMEFCPCGSLYTVLEEPSNAYGLPESEFLIVLRDVVGGMNHLRENGIVHRDIKPGNIMRVIGEDGQSVYKLTDFGAARELEDDEQFVSLYGTEEYLHPDMYERAVLRKDHQKKYGATVDLWSIGVTFYHAATGSLPFRPFEGPRRNKEVMYKIITGKPSGAISGVQKAENGPIDWSGDMPVSCSLSRGLQVLLTPVLANILEADQEKCWGFDQFFAETSDILHRMVIHVFSLQQMTAHKIYIHSYNTATIFHELVYKQTKIISSNQELIYEGRRLVLEPGRLAQHFPKTTEENPIFVVSREPLNTIGLIYEKISLPKVHPRYDLDGDASMAKAITGVVCYACRIASTLLLYQELMRKGIRWLIELIKDDYNETVHKKTEVVITLDFCIRNIEKTVKVYEKLMKINLEAAELGEISDIHTKLLRLSSSQGTIETSLQDIDSRLSPGGSLADAWAHQEGTHPKDRNVEKLQVLLNCMTEIYYQFKKDKAERRLAYNEEHIHKFDKQKLYYHATKAMTHFTDECVKKYEAFLNKSEEWIRKMLHLRKQLLSLTNQCFDIEEEVSKYQEYTNELQETLPQKMFTASSGIKHTMTPIYPSSNTLVEMTLGMKKLKEEMEGVVKELAENNHILERFGSLTMDGGLRNVDCL
B7: TBK1 M559R, untagged (natural protein, human, UniProt Q9UHD2 1-729, looked up)
chain: MQSTSNHLWLLSDILGQGATANVFRGRHKKTGDLFAIKVFNNISFLRPVDVQMREFEVLKKLNHKNIVKLFAIEEETTTRHKVLIMEFCPCGSLYTVLEEPSNAYGLPESEFLIVLRDVVGGMNHLRENGIVHRDIKPGNIMRVIGEDGQSVYKLTDFGAARELEDDEQFVSLYGTEEYLHPDMYERAVLRKDHQKKYGATVDLWSIGVTFYHAATGSLPFRPFEGPRRNKEVMYKIITGKPSGAISGVQKAENGPIDWSGDMPVSCSLSRGLQVLLTPVLANILEADQEKCWGFDQFFAETSDILHRMVIHVFSLQQMTAHKIYIHSYNTATIFHELVYKQTKIISSNQELIYEGRRLVLEPGRLAQHFPKTTEENPIFVVSREPLNTIGLIYEKISLPKVHPRYDLDGDASMAKAITGVVCYACRIASTLLLYQELMRKGIRWLIELIKDDYNETVHKKTEVVITLDFCIRNIEKTVKVYEKLMKINLEAAELGEISDIHTKLLRLSSSQGTIETSLQDIDSRLSPGGSLADAWAHQEGTHPKDRNVEKLQVLLNCRTEIYYQFKKDKAERRLAYNEEQIHKFDKQKLYYHATKAMTHFTDECVKKYEAFLNKSEEWIRKMLHLRKQLLSLTNQCFDIEEEVSKYQEYTNELQETLPQKMFTASSGIKHTMTPIYPSSNTLVEMTLGMKKLKEEMEGVVKELAENNHILERFGSLTMDGGLRNVDCL
B8: TBK1 R134H, untagged (natural protein, human, UniProt Q9UHD2 1-729, looked up)
chain: MQSTSNHLWLLSDILGQGATANVFRGRHKKTGDLFAIKVFNNISFLRPVDVQMREFEVLKKLNHKNIVKLFAIEEETTTRHKVLIMEFCPCGSLYTVLEEPSNAYGLPESEFLIVLRDVVGGMNHLRENGIVHHDIKPGNIMRVIGEDGQSVYKLTDFGAARELEDDEQFVSLYGTEEYLHPDMYERAVLRKDHQKKYGATVDLWSIGVTFYHAATGSLPFRPFEGPRRNKEVMYKIITGKPSGAISGVQKAENGPIDWSGDMPVSCSLSRGLQVLLTPVLANILEADQEKCWGFDQFFAETSDILHRMVIHVFSLQQMTAHKIYIHSYNTATIFHELVYKQTKIISSNQELIYEGRRLVLEPGRLAQHFPKTTEENPIFVVSREPLNTIGLIYEKISLPKVHPRYDLDGDASMAKAITGVVCYACRIASTLLLYQELMRKGIRWLIELIKDDYNETVHKKTEVVITLDFCIRNIEKTVKVYEKLMKINLEAAELGEISDIHTKLLRLSSSQGTIETSLQDIDSRLSPGGSLADAWAHQEGTHPKDRNVEKLQVLLNCMTEIYYQFKKDKAERRLAYNEEQIHKFDKQKLYYHATKAMTHFTDECVKKYEAFLNKSEEWIRKMLHLRKQLLSLTNQCFDIEEEVSKYQEYTNELQETLPQKMFTASSGIKHTMTPIYPSSNTLVEMTLGMKKLKEEMEGVVKELAENNHILERFGSLTMDGGLRNVDCL

What follows are binders tested against optineurin, C-terminal myc-FLAG-tagged (UniProt Q96CV9 1-577) (assay: co-IP).
optineurin, C-terminal myc-FLAG-tagged, sequence (Q96CV9 whole entry): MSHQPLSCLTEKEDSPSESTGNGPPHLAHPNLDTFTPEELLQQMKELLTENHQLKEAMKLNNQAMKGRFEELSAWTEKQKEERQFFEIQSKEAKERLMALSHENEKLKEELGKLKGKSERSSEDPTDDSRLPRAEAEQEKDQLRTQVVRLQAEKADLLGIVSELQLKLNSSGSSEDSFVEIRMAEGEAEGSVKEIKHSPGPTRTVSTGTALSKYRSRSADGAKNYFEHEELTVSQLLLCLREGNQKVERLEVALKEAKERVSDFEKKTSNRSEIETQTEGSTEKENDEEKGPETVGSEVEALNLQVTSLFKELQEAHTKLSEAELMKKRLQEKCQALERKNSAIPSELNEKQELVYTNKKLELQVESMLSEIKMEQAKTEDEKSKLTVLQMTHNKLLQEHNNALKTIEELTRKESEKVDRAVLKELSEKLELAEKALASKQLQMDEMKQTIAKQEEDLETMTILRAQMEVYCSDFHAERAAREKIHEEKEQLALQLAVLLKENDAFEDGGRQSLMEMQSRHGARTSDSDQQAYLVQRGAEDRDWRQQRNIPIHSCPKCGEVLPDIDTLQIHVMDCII
With B1 the “TBK1 bound to OPTN relative to wild type” value was 0.07 relative to TBK1 WT.
For B2, the “TBK1 bound to OPTN relative to wild type” value was 0.14 relative to TBK1 WT.
With B3 the “TBK1 bound to OPTN relative to wild type” value was 0.04 relative to TBK1 WT.
In the case of B4, the “TBK1 bound to OPTN relative to wild type” value is reported as 0.17 relative to TBK1 WT.
In the case of B5, the “TBK1 bound to OPTN relative to wild type” value is reported as 3.23 relative to TBK1 WT.
For B6, the “TBK1 bound to OPTN relative to wild type” value was 0.2 relative to TBK1 WT.
B7 was tested, and the “TBK1 bound to OPTN relative to wild type” value was 0.05 relative to TBK1 WT.
For B8, the “TBK1 bound to OPTN relative to wild type” value was 2.53 relative to TBK1 WT.
